{"source": "patent US20050048070A1", "about": "(published 2005)", "binders": {"B1": {"name": "recombinant B9165 Fab (Fab, V domains shown)", "VH": "GAEVKKPGASVKVSCKASDYTFSSYYMHWVRQAPGQGLEWMGIINPSGGSTSYAQKFQGRVTMTRDTSTNTVYMELSSLRSEDTAVYYCARDQVVVAATLSNYGMDVWGQGTTVTVSS", "VL": "ELTQSPGTLSLSPGERATLSCRASQSVSSSYLAWYQQKPGQAPRLLIYDASNRATGIPARFSGSGSGTDFTLTISSLEPEDFAVYYCQQGTNWGIAFGQGTRLDIKR", "notes": "Soluble Fab (mu Fd region plus kappa light chain) cloned from hybridoma B9165 by phage display in pComb3 and expressed in E. coli; also called cloned B9165 Fab; Fab of COU-1"}}, "key": {"bovine serum albumin": {"target": "T1, bovine serum albumin (bovine, UniProt P02769 25-607)", "T1 construct": "Irrelevant antigen in the ELISA; also called BSA", "T1 sequence (P02769 25-607 limits assumed)": "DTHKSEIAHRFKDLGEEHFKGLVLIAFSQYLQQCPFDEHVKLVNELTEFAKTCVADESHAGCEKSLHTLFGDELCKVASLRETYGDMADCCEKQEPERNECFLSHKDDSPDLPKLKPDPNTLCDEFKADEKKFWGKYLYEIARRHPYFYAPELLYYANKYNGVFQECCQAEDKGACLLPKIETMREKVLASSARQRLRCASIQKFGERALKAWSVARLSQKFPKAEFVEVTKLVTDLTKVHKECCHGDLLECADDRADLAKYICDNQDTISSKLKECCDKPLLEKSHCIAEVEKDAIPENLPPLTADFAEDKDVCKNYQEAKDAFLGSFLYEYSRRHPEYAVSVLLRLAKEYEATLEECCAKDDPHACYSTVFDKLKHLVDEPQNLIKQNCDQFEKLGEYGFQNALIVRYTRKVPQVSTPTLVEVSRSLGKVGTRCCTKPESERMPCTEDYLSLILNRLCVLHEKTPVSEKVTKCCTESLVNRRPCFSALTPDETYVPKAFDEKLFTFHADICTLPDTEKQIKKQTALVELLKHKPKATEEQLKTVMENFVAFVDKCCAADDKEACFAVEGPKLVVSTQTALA", "assay": "ELISA on coated antigens (data not shown)"}, "ovalbumin": {"target": "T2, ovalbumin (UniProt P01012 2-386)", "T2 construct": "Irrelevant antigen in the ELISA", "T2 sequence (looked up)": "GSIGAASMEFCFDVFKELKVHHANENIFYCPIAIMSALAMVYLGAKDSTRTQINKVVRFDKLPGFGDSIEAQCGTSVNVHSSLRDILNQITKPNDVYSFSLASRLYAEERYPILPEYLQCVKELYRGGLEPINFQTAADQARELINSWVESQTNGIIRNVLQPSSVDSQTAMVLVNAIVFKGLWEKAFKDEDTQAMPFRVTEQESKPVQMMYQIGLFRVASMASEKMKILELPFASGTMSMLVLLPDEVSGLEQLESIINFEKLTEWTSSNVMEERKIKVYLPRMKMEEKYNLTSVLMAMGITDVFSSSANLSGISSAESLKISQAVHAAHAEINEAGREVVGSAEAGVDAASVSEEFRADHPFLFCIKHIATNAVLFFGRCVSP", "assay": "ELISA on coated antigens (data not shown)"}}}
{"binder": "B1", "values": [{"measurement": "binding result", "setting": "bovine serum albumin", "result": "no binding"}, {"measurement": "binding result", "setting": "ovalbumin", "result": "no binding"}]}
